The results in this text go back to patent publication US20220259306A1 (SHANGHAI HYAMAB BIOTECH, published 2022).

For experiment [1], the target named is T1, human NKG2A/CD94 on the cell surface (CHOk1-hNKG2A/CD94 stable cell line) (human, UniProt P26715 1-233; Q13241 1-179).
T1 construct: whole, on cells; 93 and 94 are nucleic acids; also called human NKG2A on the cell surface; NKG2A/CD94 cells
Put plainly: FACS on CHOK1-hNKG2A/CD94 cells, Alexa 488 secondary antibody.

Experiment [2] concerns the target T2, monkey NKG2A/CD94 on the cell surface (CHOk1-cNKG2A/CD94 stable cell line) (macaque, UniProt Q9MZJ3 1-233; Q9MZK9 1-179).
T2 construct: also called macaque NKG2A; cyno NKG2A
Put plainly: FACS on CHOK1-cNKG2A/CD94 cells, Alexa 488 secondary antibody. The source says:
The pCHO1.0 plasmid containing the nucleotide sequence encoding the full-length amino acid sequence of human-derived NKG2A/CD94 as described in step (2) of Example 1 was transfected into the CHOK1 cell line to obtain a CHOK1 stable cell line containing human NKG2A and CD94 (here referred to as CHOk1-hNKG2A/CD94 stable cell line), the pCHO1.0 plasmid carrying the monkey-derived NKG2A and CD94 full-length genes (the preparation method is the same as the preparation method of pCpC vector with human IgG Fc fragment (hFc) in step (1) “Preparation of immunogen A” in Example 1. The CHOK1 cell line was transfected to obtain the CHOK1 stable cell line containing monkey NKG2A/CD94 (here referred to as the CHOk1-cNKG2A/CD94 stable cell line), the CHOK1-hNKG2C/CD94 stable cell line was prepared with the same method. CHOk1-hNKG2A/CD94 stable cell line, CHOk1-cNKG2A/CD94 stable cell line and CHOK1-hNKG2C/CD94 stable cell line were expanded to 90% confluence in T-75 cell culture flasks, aspirating the medium, washed twice with PBS buffer (purchased from Invitrogen), then treating and collecting the cells with an enzyme-free cell dissociation solution (Versene solution, purchased from Life technology). Washing the cells twice with PBS buffer, after counting the cells, diluting the cells with PBS buffer to 2×10⁶ cells per milliliter, adding 1% goat serum blocking solution, the percentage was the mass percentage, incubated on ice for 30 minutes, and then washed twice with PBS buffer by centrifugation. Suspending the collected cells with FACS buffer (PBS+1%BSA, the percentage was the mass percentage) to 2×10⁶ cells/mL, adding it to 96-wells FACS reaction plate at 100 microliters per well, and adding 100 microliters per well of the purified NKG2A antibody test sample obtained in Example 2, incubated on ice for 2 hours. Washed twice with FACS buffer by centrifugation, and adding 100 microliters of fluorescent (Alexa 488) labeled secondary antibody (purchased from Invitrogen) per well, incubated on ice for 1 hour. Washed 3 times by centrifugation with FACS buffer, then suspending the cells with 100 μl FACS buffer, and using FACS (FACS Calibur, purchased from BD) to detect and analyze the results.

The target of experiment [3] is T3, hFc-tagged NKG2A/CD94 protein (NKG2A/CD94-hFc), immunogen A (human, UniProt P26715 94-233; Q13241 32-179, biotin-labeled in the Octet assays (site not stated)).
T3 construct: Heterodimer of the extracellular domains of NKG2A and CD94, each with hFc; also called human-derived NKG2A/CD94-ECD-Fc; hNKG2A/CD94-ECD-Fc; not shown: human IgG Fc fragment (hFc) of the pCpC vector
T3 sequence (P26715 94-233 limits assumed, chain 1 of 2): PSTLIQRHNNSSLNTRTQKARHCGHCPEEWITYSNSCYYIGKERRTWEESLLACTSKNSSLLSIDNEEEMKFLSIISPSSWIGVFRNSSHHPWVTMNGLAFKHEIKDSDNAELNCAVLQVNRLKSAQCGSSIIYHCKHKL
T3 sequence (Q13241 32-179 limits assumed, chain 2 of 2): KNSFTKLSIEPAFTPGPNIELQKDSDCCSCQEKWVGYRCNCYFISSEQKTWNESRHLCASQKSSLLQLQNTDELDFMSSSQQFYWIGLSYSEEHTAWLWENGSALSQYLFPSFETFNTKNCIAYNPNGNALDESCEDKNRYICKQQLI
Put plainly: BLI (Octet red96), biotinylated immunogen A on streptavidin sensor, antibody in solution. The source says: (§1) An Octet red96 instrument (purchased from Fortiebio) was used to determine the affinity constant. The specific operations and methods are based on the instrument manual and the detailed methods provided by the manufacturer. Specifically: using a streptavidin sensor (SA sensor, purchased from Fortiebio) for affinity determination.

For experiment [4], the target named is T3, hFc-tagged NKG2A/CD94 protein …. Put plainly: BLI (Octet), biotinylated HNKG2A/CD94-ECD-Fc on streptavidin sensor, method of Example 5B.
Source text: as §1

Experiment [5] concerns the target T1, human NKG2A/CD94 on the cell surface …. Put plainly: FACS blocking assay: HLA-E binding to NKG2A/CD94 cells in the presence of the antibody.
Experiment [6] shares this target. Put plainly: FACS blocking assay: HLA-E-PE binding to CHOk1-hNKG2A/CD94 cells in the presence of the antibody.
For the next experiment, the target named is T4, NKG2E protein (human, UniProt Q07444 94-240, limits assumed).
T4 construct: construct and source not described
T4 sequence (Q07444 94-240 limits assumed): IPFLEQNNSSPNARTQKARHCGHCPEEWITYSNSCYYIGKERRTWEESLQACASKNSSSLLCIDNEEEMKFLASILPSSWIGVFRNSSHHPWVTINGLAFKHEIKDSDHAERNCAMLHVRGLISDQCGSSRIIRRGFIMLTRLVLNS
Put plainly: ELISA on NKG2E protein.

The target in experiment [7] is T2, monkey NKG2A/CD94 on the cell surface …. Put plainly: FACS on CHOK1-cNKG2A/CD94 cells.
The target is the same in experiment [8]. Put plainly: FACS on CHOK1-cNKG2A/CD94 cells. The source holds these as a separate data set.
Experiment [9] has as its target T3, hFc-tagged NKG2A/CD94 protein …. Put plainly: ELISA of scFv supernatant, selection threshold.
In experiment [10] the target is T2, monkey NKG2A/CD94 on the cell surface …. Put plainly: FACS of scFv on cells with macaque NKG2A (cell line not given).

Positions count from the first letter of the chain named.

T2 sequence (Q9MZJ3 other isoform, or with tags, fused parts or gaps, chain 1 of 2): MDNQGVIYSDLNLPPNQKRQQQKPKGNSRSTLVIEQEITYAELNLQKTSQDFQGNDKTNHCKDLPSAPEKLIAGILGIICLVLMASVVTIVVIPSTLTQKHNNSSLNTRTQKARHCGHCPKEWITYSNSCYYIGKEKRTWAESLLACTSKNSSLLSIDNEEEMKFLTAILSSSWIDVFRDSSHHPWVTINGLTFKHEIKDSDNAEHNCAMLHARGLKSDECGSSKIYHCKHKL
T2 sequence (Q9MZK9 whole entry, chain 2 of 2): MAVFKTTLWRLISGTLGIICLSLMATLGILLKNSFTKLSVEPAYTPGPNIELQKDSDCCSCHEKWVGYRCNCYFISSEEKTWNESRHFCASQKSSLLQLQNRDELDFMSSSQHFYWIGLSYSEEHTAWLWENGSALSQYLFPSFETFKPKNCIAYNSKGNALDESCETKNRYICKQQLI

B1: Tab1 (Z270) (antibody, V domains shown)
VH: EVQLVESGGGLVKPGGSLRLSCAASGFTFSSHSMNWVRQAPGKGLEWVSAISSSSSYIYYADSVKGRFTISRDNAKNSLYLQMNSLRAEDTAVYYCAREEWGLPFDYWGQGTLVTVSS
VL: AIQLTQSPSSLSASVGDRVTITCRASQGISSALAWYQQKPGKAPKLLIYDASSLKSGVPSRFSGSGSGTDFTLTISSLQPEDFATYYCQQFNSYPLTFGQGTRLEIK
Broadly, the EC50 (read off the curve) is the midpoint of the concentration-response curve. For orientation: Kd means the concentration at which binding is half-saturated. The term koff denotes the first-order rate constant of dissociation. As a reminder, the kon is a measure of how fast the partners come together. Turning to B1, the figures for the “EC50 (read off the curve)” value in experiment [1] and in experiment [2] were ~0.4 nM and ~2 nM, respectively. Further, the Kd stood at 0.142 nM in [3] and 0.182 nM in experiment [4]. In addition, the off-rate (koff) stood at 0.000189 s⁻¹ in experiment [3] and 0.00162 s⁻¹ in experiment [4]. Also, the kon in [3] is 1.33e+06 M⁻¹ s⁻¹; in experiment [4] it was 8.87e+06 M⁻¹ s⁻¹. Further, the results for the “IC50 (read off the curve)” value in [5] and in experiment [6] were ~1 nM and ~0.7 nM, respectively.

B2: Mab031 (antibody, V domains shown)
VH: EVQLQQSVAELVRPGASVRLSCTGSGFNIQNTYIHWVKQRPEQGLEWIGRIDPANGDTKYAPKFQGKATITADTSSNTAYLQLSSLTSEDTAIYYCTRYGNYLYYYSLDYWGQGTSVTVSS
VL: DIVMTQAAPSVPVTPGESVSISCRSSKSLLHSNGNTYLYWFLQRPGQSPQLLIYRMSNLASGVPDRFSGSGSGTAFTLRISRVEAEDMGVYYCMQHLEYPYTFGGGTKLEIK
Turning to B2, in the experiment with NKG2E protein, the binding result was “no binding (tested: 66.67 nM)”. Further, in [2], the “EC50 (read off the curve)” value was ~1 nM. In experiment [3], this molecule returned a Kd of 0.0181 nM, an off-rate (koff) of 1.84e-05 s⁻¹ and an on-rate (kon) of 1.02e+06 M⁻¹ s⁻¹.

B3: Mpb416 (antibody, V domains shown)
VH: QVQLQQSVAELVRPGASVKLSCTASGFNIQNTYIHWVKQRPEQGLEWIGKIDPANGDTKYAPTFQGKATITADTSSNTAYLQLSSLTPEDTAIYYCARYRDYLFYYALGYWGQGTSVTVSS
VL: B2 VL with A7S, M88V
notes: also called 12G8 (as full antibody)
For the molecule B3, in the experiment with NKG2E protein, the binding result is given as “no binding (tested: 66.67 nM)”. For the same molecule, the “EC50 (read off the curve)” value in experiment [2] is ~0.7 nM. In experiment [3], this molecule returned a dissociation constant Kd of 0.0104 nM, a dissociation rate constant (koff) of 1.04e-05 s⁻¹ and a kon of 995000 M⁻¹ s⁻¹.

B4: Mab033 (antibody, V domains shown)
VH: EVQLQQSVAEFVRPGASVRLSCTASGFNIENTYIHWLKQRPEQGLEWIGRIDPANGDTQYDPKFQGKATLTAATSSNTAYLQLSGLTSEDTAIYYCTRYGDYLFYYSLKYWGQGTSVTVSS
VL: B2 VL with P12S, M88V, Y99S
Consider B4, for which the binding result with NKG2E protein is given as “no binding (tested: 66.67 nM)”. The 50% effective concentration (EC50 (read off the curve)) in experiment [2] was ~1 nM. Moreover, in experiment [3], the equilibrium dissociation constant (Kd) came to 0.0202 nM, the off-rate constant (koff) stood at 2.26e-05 s⁻¹ and the association rate constant (kon) was found to be 1.12e+06 M⁻¹ s⁻¹.

B5: M15 (antibody, V domains shown)
VH: B3 VH with G56A
VL: B2 VL with A7S, G34A, M88V
notes: parent of the humanized M15-1 to M15-15; also called M15 antibody; Mpb416-M15
As for B5, the “EC50 (read off the curve)” value in experiment [7] and in [8] was ~0.8 nM throughout.

B6: Mab032 (antibody, V domains shown)
VH: B2 VH with Q30E, I34M, V37L, N55D, K59Q, A72T, T97A, Y104F, L108M
VL: B2 VL with G73A, M88V, V90I
On to B6, for which, in the experiment with NKG2E protein, the binding result is reported as “no binding (tested: 66.67 nM)”. Further, the “EC50 (read off the curve)” value in experiment [2] was ~1 nM. In experiment [3], this molecule returned a Kd of 0.0239 nM, an off-rate (koff) of 2.45e-05 s⁻¹ and a kon of 1.03e+06 M⁻¹ s⁻¹.

B7: M15-5 (antibody, V domains shown)
VH: QVQLVQSGAEVKKPGASVKVSCKASGFNIQNTYIHWVKQAPGQGLEWIGKIDPANADTKYAPTFQGRATITADTSTNTAYLELSSLRSEDTAVYYCARYRDYLFYYALGYWGQGTTVTVSS
VL: DIVMTQSPLSLPVTPGEPASISCRSSKSLLHSNANTYLYWYLQKPGQSPQLLIYRMSNLASGVPDRFSGSGSGTDFTLKISRVEAEDVGVYYCMQHLEYPYTFGQGTKLEIK
notes: Humanized; also called humanized NKG2A antibody
With B7, the “EC50 (read off the curve)” value in experiment [7] was ~1 nM. Further, in experiment [4], the dissociation constant (Kd) was < 0.0104 nM, the dissociation rate constant (koff) was < 1e-05 s⁻¹ and the association rate constant (kon) came out at 958000 M⁻¹ s⁻¹.

B8: 2F10-2 (scFv clone) (scFv, V domains shown)
VH: QVQLQQSVAELVRPGASVKLSCTASGFNIKNAYVHWVKQRPEQGLEWIGQIDPANGNTKYAPKFQAKATITADTSSNTVYLQLSSLTSEDTAVYYCARSYLGGQYYFDYSGQGTTLTVSS
VL: DILMTQSPSSMYASLGERVTITCKASQDINSYLSWFQQKPGKSPKTLIYRANRLVDGVPSRFSGSGSGQDYSLTISSLEYEDMGIYYCLQYDEFPLTFGAGTKLEIK
notes: scFv
B8: the “OD450 nm reading ratio NKG2A/CD94-ECD-Fc / NKG2C/CD94-ECD-Fc” value in [9] worked out at 4. Moreover, in experiment [10], the binding result is recorded as “binds”.
